Data: patent EP4471048A1, “PEPTIDE INHIBITORS OF INTERLEUKIN-23 RECEPTOR” (Zealand Pharma A/S, priority 2023, dated 2024)
*1 amine or outer side, *2 acyl side, *3 side chain or, on linkers, in order; H or OH if unused. Bridges are numbered along the chain shown (N, C = ends). Where no end group is shown, it is not given here. [ ]: non-standard residue; d: D form. 4‑Aminomethyl‑phenylacetyl = 4-aminomethyl-phenylacetyl unit, its amine closes the lactam, O=C(Cc1ccc(CN[*:1])cc1)[*:2]; Trp(1-Me) = Cn1cc(C[C@H](N)C(=O)O)c2ccccc21; 2Nal = N[C@@H](Cc1ccc2ccccc2c1)C(=O)O; AEF = NCCOc1ccc(C[C@H](N)C(=O)O)cc1; 3Pal = N[C@@H](Cc1cccnc1)C(=O)O; αMeL = CC(C)C[C@](C)(N)C(=O)O; NMeK = CN[C@@H](CCCCN)C(=O)O; β3hK = NCCCC[C@H](N)CC(=O)O; dOrn = NCCC[C@@H](N)C(=O)O; Orn = NCCC[C@H](N)C(=O)O; Dab = NCC[C@H](N)C(=O)O; βAla = NCCC(=O)O

Key:
human IL-23R = molecular target: T1, human IL-23R (Homo sapiens, UniProt Q5VWK5); experiment: biochemical
T1 sequence (Q5VWK5 22-629): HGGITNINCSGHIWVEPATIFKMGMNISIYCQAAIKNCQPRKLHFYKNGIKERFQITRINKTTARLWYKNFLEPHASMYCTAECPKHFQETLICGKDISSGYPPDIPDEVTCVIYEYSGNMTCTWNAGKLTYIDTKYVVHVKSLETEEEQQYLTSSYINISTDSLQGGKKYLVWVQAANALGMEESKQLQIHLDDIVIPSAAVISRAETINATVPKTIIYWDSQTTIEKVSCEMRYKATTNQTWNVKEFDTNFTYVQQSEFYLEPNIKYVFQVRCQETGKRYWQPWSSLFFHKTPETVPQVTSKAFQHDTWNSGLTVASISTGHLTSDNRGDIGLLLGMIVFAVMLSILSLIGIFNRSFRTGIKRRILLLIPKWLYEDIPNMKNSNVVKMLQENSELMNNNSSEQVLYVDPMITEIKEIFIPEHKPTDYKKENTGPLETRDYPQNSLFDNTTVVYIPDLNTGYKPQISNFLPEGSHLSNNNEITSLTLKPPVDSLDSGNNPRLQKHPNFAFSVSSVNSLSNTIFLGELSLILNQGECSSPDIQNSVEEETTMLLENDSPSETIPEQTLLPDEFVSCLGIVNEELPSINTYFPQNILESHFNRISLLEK
Summary of the method: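 BRET displacement of a TAMRA-labelled reference compound from N-terminal Nanoluc-IL-23R fusion protein in membranes from stably transfected HEK293 cells. Incubation 2 h at room temperature, then Nanoluc substrate was added and the TAMRA/Nanoluc ratio read. IC50 and maximal displacement came from 4-parameter logistic fits.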

[1] = Peptide stability in simulated gastric fluid (SGF); format: in vitro ADME; settings: pig, simulated gastric fluid (SGF) with porcine pepsin (3.2 g/L), pH 1.2, 10 µM, 37 °C, porcine pepsin
Summary of the method: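 Peptide incubated at 37 °C with gentle shaking in SGF (NaCl, pH 1.2). Samples centrifuged, diluted and analysed by LC-HRMS; percent remaining at each timepoint from absolute peak areas relative to time zero, with 4 h as the reference point.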

[2] = Peptide stability in simulated intestinal fluid (SIF); format: in vitro ADME; settings: pig, 37 °C, porcine pancreatin
Summary of the method: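 Peptides were incubated at 37 °C with gentle shaking in pH 6.8 potassium phosphate SIF containing porcine pancreatin (10 g/L). Supernatants were analysed by LC-HRMS. Percent remaining at each timepoint, including 4 h, was calculated relative to time zero from absolute peak areas.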

[3] = molecular target: IL-23 mediated signalling (Homo sapiens, UniProt Q5VWK5); experiment: Functional inhibition of IL-23 mediated STAT3 signalling (phospho-STAT3 MSD) in DB cells; format: cell-based
Summary of the method: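 DB cells preincubated with inhibitor 15 min at 37 °C, then stimulated 90 min with EC80 human IL-23; lysate phospho-STAT3 measured by MSD electrochemiluminescence. Signal normalized to IL-23-alone and buffer controls; IC50 and maximal % inhibition from 4-parameter logistic fit.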

[4] = molecular target: T2, Nluc-IL23R fusion protein (human, UniProt Q5VWK5 22-629); experiment: BRET competition vs TAMRA-labelled peptide, Nluc-IL23R membranes
T2 construct: range 22-629; Stably expressed in HEK293 cells; also called hIL-23R; human IL-23R; not shown: Nanoluc protein (N1371, Promega) at the N-terminus, after a secretion signal
T2 sequence (looked up): T1 sequence (Q5VWK5 22-629)

[5] = molecular target: T3, human IL-23R endogenously expressed on DB cells (human, UniProt Q5VWK5 24-629); experiment: cell-based or functional assay
T3 sequence (looked up): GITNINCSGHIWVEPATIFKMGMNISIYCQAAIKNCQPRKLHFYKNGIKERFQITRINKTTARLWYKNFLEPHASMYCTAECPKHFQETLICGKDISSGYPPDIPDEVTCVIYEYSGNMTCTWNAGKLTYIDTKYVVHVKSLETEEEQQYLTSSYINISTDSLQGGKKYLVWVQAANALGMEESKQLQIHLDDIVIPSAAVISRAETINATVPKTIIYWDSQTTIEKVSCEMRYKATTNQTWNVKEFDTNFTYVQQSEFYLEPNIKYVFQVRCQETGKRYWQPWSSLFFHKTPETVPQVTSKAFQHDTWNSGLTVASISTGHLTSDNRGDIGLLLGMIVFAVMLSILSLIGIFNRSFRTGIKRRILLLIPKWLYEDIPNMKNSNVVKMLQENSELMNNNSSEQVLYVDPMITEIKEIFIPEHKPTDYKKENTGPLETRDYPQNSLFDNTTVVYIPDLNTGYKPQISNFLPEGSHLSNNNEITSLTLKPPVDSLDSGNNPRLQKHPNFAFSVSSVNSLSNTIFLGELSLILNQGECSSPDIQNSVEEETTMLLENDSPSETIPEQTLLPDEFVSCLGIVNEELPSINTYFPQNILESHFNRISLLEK

Molecule: CC(C)C[C@]1(C)NC(=O)[C@H](Cc2ccc3ccccc3c2)NC(=O)[C@H](Cc2ccc(OCCN)cc2)NC(=O)[C@@H]2CCNC(=O)CC[C@H](NC(=O)[C@H](CO)NC(=O)Cc3ccc(cc3)CNC(=O)CC[C@@H](C(=O)N[C@@H](CCN)C(=O)N[C@@H](Cc3cccnc3)C(N)=O)NC1=O)C(=O)N[C@@H](Cc1c[nH]c3ccccc13)C(=O)N[C@@H](CCC(N)=O)C(=O)N2 [Ref 122, [4-Aminomethyl-phenylacetyl](1c)*SE(2c)WQ[Dab](2c)[Y(2-aminoethoxy)][2-Nal][2-Me-Leu]E(1 c)[Dab][3-(3-Pyridyl)-Ala]-[NH2], reference compound]
- % displacement (hIL-23R NIuc) (human IL-23R): 97%
- IC50 (human IL-23R): 6.6 pM
- Ki (human IL-23R): 5.41 pM
- remaining at 1 h, 10 µM ([1]; pH 1.2, 1 h, read-out: SGF (% remaining 1 h)): 92%
- remaining at 4 h, 10 µM ([1]; pH 1.2, 4 h, read-out: SGF (% remaining 4 h)): 90%
- remaining at 1 h, 10 µM ([2]; pH 6.8, 1 h): 73%
- remaining at 4 h, 10 µM ([2]; pH 6.8, 4 h, read-out: SIF (% remaining 4 h)): 25%
- IC50 [3]: 0.028 nM
- Emax ([3]; Table 3-2, maximal inhibitory response, DB cells, hIL-23 at EC80, read-out: hIL-23 (pSTAT3) antagonist % inhibition): 99%

B1: Compound 63 (peptide)
peptide: KIVWQE[AEF][2Nal][αMeL]EP[3Pal]-NHMe
modifications: lactam 1-10; lactam (positions not given here); not fully specified (bridges); printed as K(1c)(6c)^{†}IVWQE(6c)[Y(2-aminoethoxy)][2-Nal][2-Me-Leu]E(1c)P[3-(3-Pyridyl)-Ala]-[NHMe]
- % displacement [4]: 98%

B2: Ref 81 (peptide)
peptide: [4‑Aminomethyl‑phenylacetyl]SCWQC[AEF][2Nal][αMeL]ES-NH2
modifications: lactam (positions not given here); bridge 3-6; not fully specified (bridges)
- hIL-23 (pSTAT3) antagonist % inhibition [5]: 95%
- hIL-23 (pSTAT3) antagonist IC50 [5]: 21 nM

B3: Compound 80 (peptide)
peptide: [NMeK][βAla]WQE[AEF][2Nal][αMeL]E[Dab][3Pal]-NHMe
modifications: lactam 1-9, 1-5; not fully specified; printed as [N-Me-Lys](1c)(6c)^†[3-Aminopropanoyl]WQE(6c)[Y(2-aminoethoxy)][2-Nal][2-Me-Leu]E(1c)[Dab][3-(3-Pyridyl)-Ala]-[NHMe], (1c) [2,11] lactam, (6c) [2,7] lactam, ^† alpha-amine in bridge; also: alpha-amine of residue 1 in bridge, which of the two lactams not given here
- % displacement [4]: 102%

B4: Compound 91 (peptide)
peptide: [Orn][βAla]WQE[AEF][2Nal][αMeL]E[Dab][3Pal]-NHMe
modifications: lactam 1-9, 1-5; not fully specified; printed as [Orn](1c)(6c)^†[3-Aminopropanoyl]WQE(6c)[Y(2-aminoethoxy)][2-Nal][2-Me-Leu]E(1c)[Dab][3-(3-Pyridyl)-Ala]-[NHMe], (1c) [2,11] lactam, (6c) [2,7] lactam, ^† alpha-amine in bridge; also: alpha-amine of residue 1 in bridge, which of the two lactams not given here
- % displacement [4]: 100%

B5: Ref 125 (peptide)
peptide: [4‑Aminomethyl‑phenylacetyl]SEWQ[Dab][AEF][2Nal][αMeL]E[Dab]-NH2
modifications: lactam (positions not given here); bridge 3-6; not fully specified (bridges)
- hIL-23 (pSTAT3) antagonist IC50 [5]: 21 nM

B6: Compound 76 (peptide)
peptide: KTVWQE[AEF][2Nal][Dab]E[Dab][3Pal]
modifications: lactam 1-10, 9-C; lactam (positions not given here); not fully specified (bridges); printed as K(1c)(6c)^{†}TVWQE(6c)[Y(2-aminoethoxy)][2-Nal][Dab](7c)E(1c)[Dab][3-(3-Pyridyl)-Ala](7c)^{‡}
- % displacement [4]: 92%

B7: Compound 106 (peptide)
peptide: [iso‑Glu]WQE[AEF][2Nal][αMeL]K[Dab][3Pal]-NHMe
modifications: lactam 1-8, N-4; also: iso-Glu: alpha-carboxylic acid in bridge
- % displacement [4]: 99%

B8: Compound 99 (peptide)
peptide: [β3hK]GWQE[AEF][2Nal][αMeL]E[Dab][3Pal]-NHMe
modifications: lactam 1-9; lactam (positions not given here); not fully specified (bridges); also: beta-amine of residue 1 is in one of the two lactams
- hIL-23 (pSTAT3) antagonist % inhibition [5]: 100%
- hIL-23 (pSTAT3) antagonist IC50 [5]: 14 pM

B9: Compound 102 (peptide)
peptide: [iso‑Lys]WQE[AEF][2Nal][αMeL]E[Dab][3Pal]-NHMe
modifications: lactam (positions not given here); not fully specified (bridges); printed as [iso-Lys](1c)^†(6c)WQE(6c)[Y(2-aminoethoxy)][2-Nal][2-Me-Leu]E(1c)[Dab][3-(3-Pyridyl)-Ala]-[NHMe], (1c) [2,11] lactam, (6c) [2,7] lactam, ^† alpha-amine in bridge
- % displacement [4]: 97%

B10: Compound 79 (peptide)
peptide: K[βAla][Trp(1-Me)]QE[AEF][2Nal][αMeL]E[Dab][3Pal]-NHMe
modifications: lactam 1-9, 1-5; not fully specified; printed as K(1c)(6c)^†[3-Aminopropanoyl][1-Me-Trp]QE(6c)[Y(2-aminoethoxy)][2-Nal][2-Me-Leu]E(1c)[Dab][3-(3-Pyridyl)-Ala]-[NHMe], (1c) [2,11] lactam, (6c) [2,7] lactam, ^† alpha-amine in bridge; also: alpha-amine of residue 1 in bridge, which of the two lactams not given here
- % displacement [4]: 100%

B11: Compound 10 (peptide)
peptide: [dOrn]TVWQD[AEF][2Nal][αMeL]E[Dab][3Pal]-NH2
modifications: lactam 1-10, N-6
SMILES: CC(C)C[C@]1(C)NC(=O)[C@H](Cc2ccc3ccccc3c2)NC(=O)[C@H](Cc2ccc(OCCN)cc2)NC(=O)[C@@H]2CC(=O)N[C@H](CCCNC(=O)CC[C@@H](C(=O)N[C@@H](CCN)C(=O)N[C@@H](Cc3cccnc3)C(N)=O)NC1=O)C(=O)N[C@@H]([C@@H](C)O)C(=O)N[C@@H](C(C)C)C(=O)N[C@@H](Cc1c[nH]c3ccccc13)C(=O)N[C@@H](CCC(N)=O)C(=O)N2
- % displacement [4]: 107%
